# Laboratory results reported in patent publication US20160280794A1 (published 2016).
# T1: CD20 (human, UniProt P11836 1-297)
# T1 chain: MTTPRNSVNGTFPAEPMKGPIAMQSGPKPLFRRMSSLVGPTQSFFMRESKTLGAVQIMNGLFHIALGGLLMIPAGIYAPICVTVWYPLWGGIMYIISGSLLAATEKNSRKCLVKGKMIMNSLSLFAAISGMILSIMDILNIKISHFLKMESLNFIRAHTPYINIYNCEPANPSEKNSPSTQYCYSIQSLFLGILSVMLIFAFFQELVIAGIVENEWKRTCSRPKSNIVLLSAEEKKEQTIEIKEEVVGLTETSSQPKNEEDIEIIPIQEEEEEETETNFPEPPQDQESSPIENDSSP
# B1: Rituximab (antibody)
# chain 1: not shown
# chain 2: QIVLSQSPAILSASPGEKVTMTCRASSSVSYIHWFQQKPGSSPKPWIYATSNLASGVPVRFSGSGSGTSYSLTISRVEAEDAATYYCQQWTSNPPTFGGGTKLEIKRTVAAPSVFIFPPSDEQLKSGTASVVCLLNNFYPREAKVQWKVDNALQSGNSQESVTEQDSKDSTYSLSSTLTLSKADYEKHKVYACEVTHQGLSSPVTKSFNRGEC
# Biological target: T1, CD20
# Assay: FACS binding; Ramos cells
binder,measurement,value
B1,EC50,1.13 µg/mL
